Data as given in US20260146093A1 (DREN BIO MANAGEMENT, published 2026).
Where a chain is given by its changes, count along the chain named. One block for each binder: values may come before it.

Tests used:
[1] = molecular target: T1, human Dectin-1 isoform A on HEK-Blue hDectin-1a cells (human, UniProt Q9BXN2 1-247); experiment: cell-based or functional assay
T1 sequence: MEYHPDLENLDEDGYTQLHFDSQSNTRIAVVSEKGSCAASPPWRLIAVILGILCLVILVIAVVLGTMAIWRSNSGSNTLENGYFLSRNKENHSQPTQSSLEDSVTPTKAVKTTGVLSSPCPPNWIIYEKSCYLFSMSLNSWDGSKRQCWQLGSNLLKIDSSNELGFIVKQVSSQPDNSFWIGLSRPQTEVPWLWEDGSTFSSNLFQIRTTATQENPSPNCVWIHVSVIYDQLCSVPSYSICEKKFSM

[2] = molecular target: T2, human Trop-2 expressed on cells (A-431, NCI-N87, SKBR3, CHO-K1-hTrop2) (human, UniProt P09758 27-323); experiment: cell-based or functional assay
T2 sequence: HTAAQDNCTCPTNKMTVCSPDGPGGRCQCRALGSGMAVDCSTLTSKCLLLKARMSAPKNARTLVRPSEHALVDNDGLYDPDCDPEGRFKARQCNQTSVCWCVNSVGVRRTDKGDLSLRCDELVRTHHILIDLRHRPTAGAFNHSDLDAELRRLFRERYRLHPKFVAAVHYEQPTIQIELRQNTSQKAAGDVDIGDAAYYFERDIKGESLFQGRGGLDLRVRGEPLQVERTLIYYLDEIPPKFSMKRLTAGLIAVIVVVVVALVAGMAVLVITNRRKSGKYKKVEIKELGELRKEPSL

[3] = molecular target: T2, human Trop-2 expressed on cells (A-431, …); experiment: flow cytometry on A-431 cells, fluorescent anti-human secondary antibody
Method: (§1) FIGS. 2A-2D show binding assays in which cells expressing human Trop-2 were incubated with anti-Dectin-1 x anti-Trop-2 bispecific antibodies with human IgG1 Fc (as indicated) or isotype control, and binding was measured by flow cytometry using a fluorescently labeled anti-human secondary antibody. Shown are binding of the indicated antibodies to human epidermoid carcinoma A-431 cells (FIG. 2A), human gastric carcinoma NCI-N87 cells (FIG. 2B), human breast cancer SKBR3 cells (FIG. 2C), or CHO-K1 cells expressing human Trop-2 (FIG. 2D).
(§2) Human cancer cell lines and CHO cells expressing human Trop-2 (CHO-K1-hTrop2 cells) were incubated with the anti-Dectin-1 x anti-Trop-2 bispecific antibodies, Trop-2 clones 15, 45, 76, 77, 63, 64, 65 and 123, or the hIgG1 isotype, followed by a fluorescent anti-human secondary antibody. The primary antibodies were used in an 8-point serial dose titration starting at 300 or 100 nM and diluted 1 to 3.

[4] = molecular target: T2, human Trop-2 expressed on cells (A-431, …); experiment: flow cytometry on SKBR3 cells, fluorescent anti-human secondary antibody
Method: as §1, §2

[5] = molecular target: T2, human Trop-2 expressed on cells (A-431, …); experiment: flow cytometry on NCI-N87 cells, fluorescent anti-human secondary antibody
Method: as §1, §2

[6] = molecular target: T2, human Trop-2 expressed on cells (A-431, …); experiment: flow cytometry on CHO-K1-hTrop2 cells, fluorescent anti-human secondary antibody
Method: as §1, §2

Human Trop-2 ECD protein = molecular target: T3, Human Trop-2 ECD protein (human, UniProt P09758 27-274); experiment: BLI, hTrop-2 ECD captured via anti-HIS Tag, bispecific antibody in solution (monovalent)
T3 construct: also called hTrop-2 ECD; not shown: HIS tag (captured on the biosensor via anti-HIS Tag)
T3 sequence: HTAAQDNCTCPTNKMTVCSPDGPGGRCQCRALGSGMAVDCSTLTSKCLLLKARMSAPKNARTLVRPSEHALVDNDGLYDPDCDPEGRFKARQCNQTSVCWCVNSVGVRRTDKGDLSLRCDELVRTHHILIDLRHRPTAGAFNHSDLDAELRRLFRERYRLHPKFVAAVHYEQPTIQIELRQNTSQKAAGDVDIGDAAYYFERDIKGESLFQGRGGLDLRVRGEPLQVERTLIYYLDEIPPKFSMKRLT
Method: Monovalent binding affinity was measured by biosensor (BLI). Human Trop-2 ECD protein was captured on biosensor via anti-HIS Tag. On and off rate binding was measured against bispecific antibodies with 1 arm binding to hTrop2 at varying concentrations. On rate and off rate measurements were fitted to generated KD values.
Monovalent binding affinity of each anti-Dectin-1 x anti-Trop-2 bispecific antibody to the human Trop-2 ECD was also measured by biosensor (BLI).

[7] = molecular target: T1, human Dectin-1 isoform A on HEK-Blue …; experiment: cell-based or functional assay; remark: listed apart in the source
[8] = molecular target: T2, human Trop-2 expressed on cells (A-431, …); experiment: flow cytometry on CHO-K1 cells expressing hTrop-2 (sheet title: Binding to Chok1 hTrop2)
[9] = molecular target: T1, human Dectin-1 isoform A on HEK-Blue …; experiment: flow cytometry on HEK cells expressing hDectin-1 (sheet title: Binding to HEK Blue Dectin 1a cells)

- Dectin-1 pathway activation (SEAP secretion), HEK-Blue hDectin-1a cells in the presence of A-431 cells, EC50 [1]: 0.08 µg/mL
- Dectin-1 pathway activation (SEAP secretion), HEK-Blue hDectin-1a cells in the presence of CHO-K1-hTrop2 cells, EC50 [1]: 0.05 µg/mL
- Dectin-1 pathway activation (SEAP secretion), HEK-Blue hDectin-1a cells in the presence of NCI-N87 cells, EC50 [1]: 0.06 µg/mL
- Dectin-1 pathway activation (SEAP secretion), HEK-Blue hDectin-1a cells in the presence of SKBR3 cells, EC50 [1]: 0.05 µg/mL
- Induction of phagocytosis in vitro of A-431 cells by human macrophages, EC50 [2]: 0.45 nM
- Induction of phagocytosis in vitro of NCI-N87 cells by human macrophages, EC50 [2]: 0.132 nM
- Induction of phagocytosis in vitro of SKBR3 cells by human macrophages, EC50 [2]: 0.319 nM
- EC50 [3]: 53.2 nM
- EC50 [4]: 28 nM
- EC50 [5]: 39.5 nM
- EC50 [6]: 7.25 nM
- Kd (Human Trop-2 ECD protein): 12.9 nM
- koff (Human Trop-2 ECD protein): 0.00181 s⁻¹
- kon (Human Trop-2 ECD protein): 140000 M⁻¹ s⁻¹
B1: 2M24 × Trop-2 clone C hG1 (bispecific antibody, V domains shown)
VH 1: QVQLVQSGAEVKKPGASVKVSCKSSGYTFTDYYIHWVRQAPGQGLEWMGWINPNSGDTNYAQKFQGRITMTRDTSISTAYLELSRLRSDDTAVFYCARNSGSYSFGYWGQGTLVTVSS
VL 1: DIQMTQSPSSVSASVGDRVTITCRASQGISSWLAWYQQKPGKAPKLLIFGASSLQSGVPSRFSGSGSGTDFTLTVSSLQPEDFATYYCQQAYSFPFTFGPGTKVDIE
VH 2: QVQLVQSGSELKKPGASVKLSCKASGYTFTSYGMNWVRQAPGQGLEWMGWINTNTGNPTYAQGFTGRFVFSLDTSVSTAYLQISSLKAEDTAVYYCARGYNWNDGDFDYWGQGTLVTVSS
VL 2: AIQMTQSPSSLSPSVGDRVTITCRASQGIRNDLGWYQQKPGKAPKLLIFAASSLQSGVPSRFSGSGSGTDFTLTISNLQPEDFATYYCLQNYNYPLTFGGGTKVEIK
notes: Full chains appear only in embodiments and are not tied to the tested molecule; also called anti-Dectin-1 x anti-Trop-2 bispecific antibody; DR02B.77

- EC50 of SEAP secretion by the hDectin-1 reporter cells (hDec1 Reporter Assay; the Trop-2-expressing cell line is not named) [7]: 0.62 nM
- EC50 (read off the curve) [8]: ~5 nM
- EC50 (read off the curve) [9]: ~0.7 nM
B2: Dectin-1 2M24.124 x Trop-2 clone A hIgG1 (bispecific antibody)
anti-Dectin-1 heavy chain: B1 VH 1 with S24A, I34M, S55E, Q65E, L81M, F94Y, S100T, S102A, Q110C
anti-Dectin-1 light chain: B1 VL 1 with A43C, F49Y, S53D, V75I, S93G, E107K
anti-Trop-2 heavy chain: QVQLQQSGSELKKPGASVKVSCKASGYTFTNYGMNWVKQAPGQGLKWMGWINTYTGEPTYTDDFKGRFAFSLDTSVSTAYLQISSLKADDTAVYFCARGGFGSSYWYFDVWGQGSLVTVSS
anti-Trop-2 light chain: DIQLTQSPSSLSASVGDRVSITCKASQDVSIAVAWYQQKPGKAPKLLIYSASYRYTGVPDRFSGSGSGTDFTLTISSLQPEDFAVYYCQQHYITPLTFGAGTKVEIK
notes: member of group m9; also called 2M24.124xTrop-2 clone A hG1; disulfide-engineered Fab-format bispecific, clone A

- Dectin-1 pathway activation (SEAP secretion), HEK-Blue hDectin-1a cells in the presence of A-431 cells, EC50 [1]: 0.04 µg/mL
- Dectin-1 pathway activation (SEAP secretion), HEK-Blue hDectin-1a cells in the presence of CHO-K1-hTrop2 cells, EC50 [1]: 0.07 µg/mL
- Dectin-1 pathway activation (SEAP secretion), HEK-Blue hDectin-1a cells in the presence of NCI-N87 cells, EC50 [1]: 0.03 µg/mL
- Dectin-1 pathway activation (SEAP secretion), HEK-Blue hDectin-1a cells in the presence of SKBR3 cells, EC50 [1]: 0.04 µg/mL
- Induction of phagocytosis in vitro of A-431 cells by human macrophages, EC50 [2]: 0.34 nM
- Induction of phagocytosis in vitro of NCI-N87 cells by human macrophages, EC50 [2]: 1.12 nM
- Induction of phagocytosis in vitro of SKBR3 cells by human macrophages, EC50 [2]: 0.269 nM
- EC50 [3]: 7.56 nM
- EC50 [4]: 24.2 nM
- EC50 [5]: 17.9 nM
- EC50 [6]: 4.32 nM
- Kd (Human Trop-2 ECD protein): 9.55 nM
- koff (Human Trop-2 ECD protein): 0.000475 s⁻¹
- kon (Human Trop-2 ECD protein): 49700 M⁻¹ s⁻¹
B3: 2M24 × Trop-2 clone B hG1 (bispecific antibody, V domains shown)
VH 1: B1 VH 1
VL 1: B1 VL 1
VH 2: QVQLQESGPGLVKPSGTLSLTCAVSGGSISSSNWWSWVRQPPGKGLEWIGEIYHDGSTDYFPSLKSRVTISVDKSKNQFSLKLSSVTAADTAVYYCARDNWGFDYWGQGTLVTVSS
VL 2: DIVLTQSPGTLSLSPGERATLSCRASQSVSSSYLAWYQQKPGQAPRLLISGASSRATGIPDRFSGSGSGTDFTLTISRLEPEDFAVYYCQQYGSSHRTFGQGTKVEIK
notes: Full chains appear only in embodiments and are not tied to the tested molecule; also called anti-Dectin-1 x anti-Trop-2 bispecific antibody; DR02B.65

- EC50 of SEAP secretion by the hDectin-1 reporter cells (hDec1 Reporter Assay; the Trop-2-expressing cell line is not named) [7]: 0.61 nM
- EC50 (read off the curve) [8]: ~7 nM
- EC50 (read off the curve) [9]: ~0.7 nM
B4: Dectin-1 2M24.124 x Trop-2 clone B hIgG1 (bispecific antibody)
anti-Dectin-1 heavy chain: B1 VH 1 with S24A, I34M, S55E, Q65E, L81M, F94Y, S100T, S102A, Q110C
anti-Dectin-1 light chain: B1 VL 1 with A43C, F49Y, S53D, V75I, S93G, E107K
anti-Trop-2 heavy chain: B3 VH 2
anti-Trop-2 light chain: B3 VL 2
notes: member of group m9; also called 2M24.124xTrop-2 clone B hG1; disulfide-engineered Fab-format bispecific, clone B
